In patent publication US6420524:

Key:
Assay in all cases: cell_activity
[1] = tested on: TnsA+TnsB+TnsC+TnsD+TnsE (Escherichia coli (Tn7)?); conditions: mating-out assay; +/- 1.1e-4
[2] = molecular target: TnsA+TnsB+TnsC (wild type) (Escherichia coli (Tn7)?) (UniProt P13988+P13989+P05846); conditions: mating-out assay
[3] = tested on: TnsA+TnsB+TnsC A225V TnsC A225V (Escherichia coli (Tn7)?)
[4] = tested on: TnsA+TnsB+TnsC+TnsE (Escherichia coli (Tn7)?); conditions: lambda hop
[5] = molecular target: TnsA+TnsB+TnsC+TnsD (Escherichia coli (Tn7)?) (UniProt P13988+P13989+P05846+A0A0H2XLP6); conditions: lambda hop
[6] = tested on: TnsA+TnsB+TnsC S401YΔ402 TnsC S401Y, Δ402 (Escherichia coli (Tn7)?); conditions: lambda hop; inhibited somewhat by TnsD

| Substance | activity (transposition frequency) [1] | activity (transposition frequency) [2] | activity (transposition frequency) ([3]; mating-out assay, +/- 8.1e-6) | activity (KmR colonies/pfu) [4] | activity (KmR colonies/pfu) [5] | relative transposition activity (fold vs TnsABCwt+E) [6] | relative transposition activity (fold vs TnsABCwt+E) ([3]; lambda hop, stimulated 500-fold by TnsD+attTn7) |
| --- | --- | --- | --- | --- | --- | --- | --- |
| pOX-G conjugable target plasmid | 0.00055 | < 1e-07 | 8.8e-06 | – | – | – | – |
| E. coli chromosome target (miniTn7-KmR from lambda KK1) | – | – | – | 2.2e-07 | 0.00018 | 50 | 8 |
